{"source": "patent US20060193821", "about": "“Aptamers to the human IL-12 cytokine family and their use as autoimmune disease therapeutics” (published 2006)", "binders": {"B1": {"name": "ARC492 (mixed)", "RNA": "GGGAGAGGAGAGAACGUUCUACUCAAUGACCGCGCGAGGCUCUGGGAGAGGGCGCUGUCGAUCGAUCGAUCGAUG", "modifications": "2'-deoxy A and G, 2'-OMe C and U (dRmY)"}, "B2": {"name": "AMX369.H1 (ARC1914) (ssRNA)", "RNA": "GGAGCGCACUCAGCCACCUGGGAAAAUCUGGGUCCCUGAGUUCUAACAGCAGAGAUUUUUCGACCUCUCUGCUAGC", "modifications": "2'-F all C and U (rRfY)"}, "B3": {"name": "ARC1160 (mixed)", "RNA": "ACAGGCAAGUAAUUGGGGAGUGCGGGCGGGGUGU", "modifications": "dRmY; PS between nt 18 and 19 [N = PS linkage, not a base; PS between nt 18 and 19; 2'-deoxy all A/G; 2'-OMe all C/U (2,6,10,13,14,21,23,27,32,34)]"}, "B4": {"name": "ARC1620 (mixed)", "RNA": "B3 RNA", "modifications": "2'-OMe C,U and G16,G17,G24,G25,G30,G31; other A,G deoxy; PS 2-3; 3'-idT [PS 2-3; 2'-OMe at 2,6,10,13,14,16,17,21,23,24,25,27,30,31,32,34; other A,G deoxy; 3'-inverted dT at 35]"}}, "key": {"[1]": {"target": "IL-12 (human, p35/p40 heterodimer) (Homo sapiens, UniProt P29459;P29460 SEQ:57-253,SEQ:23-328)", "sequence (P29459 23-219, chain 1 of 2)": "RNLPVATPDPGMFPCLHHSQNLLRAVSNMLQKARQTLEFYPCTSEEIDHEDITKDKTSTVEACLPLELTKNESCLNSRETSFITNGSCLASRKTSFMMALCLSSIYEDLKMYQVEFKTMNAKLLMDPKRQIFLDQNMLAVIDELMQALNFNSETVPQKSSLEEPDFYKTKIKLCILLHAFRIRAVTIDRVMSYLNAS", "sequence (P29460 23-328, chain 2 of 2)": "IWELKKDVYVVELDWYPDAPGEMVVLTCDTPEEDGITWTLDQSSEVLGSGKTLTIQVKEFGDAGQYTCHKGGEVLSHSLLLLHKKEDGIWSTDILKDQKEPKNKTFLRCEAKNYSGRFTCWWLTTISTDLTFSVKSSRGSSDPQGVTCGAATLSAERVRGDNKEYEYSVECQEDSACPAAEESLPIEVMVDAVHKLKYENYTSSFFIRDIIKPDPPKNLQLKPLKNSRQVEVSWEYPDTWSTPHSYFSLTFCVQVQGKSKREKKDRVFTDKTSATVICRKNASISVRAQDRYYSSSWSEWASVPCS", "assay": "filter; no binding detectable", "details": "label: 32P"}, "[2]": {"target": "T1, IL-23 (human, p19/p40 heterodimer) (Homo sapiens, UniProt Q9NPF7;P29460 SEQ:20-189,SEQ:23-328)", "T1 sequence (Q9NPF7 20-189, chain 1 of 2)": "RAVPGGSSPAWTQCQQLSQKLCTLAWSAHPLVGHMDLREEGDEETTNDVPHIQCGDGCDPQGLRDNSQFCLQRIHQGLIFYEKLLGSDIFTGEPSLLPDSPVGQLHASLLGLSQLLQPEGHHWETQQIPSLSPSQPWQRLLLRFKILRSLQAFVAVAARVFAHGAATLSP", "T1 sequence (P29460 23-328, chain 2 of 2)": "as the sequence (P29460 23-328, chain 2 of 2) above", "assay": "filter; no binding detectable", "details": "tags: R&D Systems, carrier free; label: 32P"}, "[3]": {"target": "T1, IL-23 (human, p19/p40 heterodimer)", "assay": "filter; no binding; used as negative control", "details": "tags: R&D Systems, carrier free; label: 5'-32P", "excerpt": "(§1) The fraction aptamer bound vs. [IL-23] was used to calculate the KD by fitting the following equation to the data: Fraction aptamer bound=amplitude*([IL-23]/(KD+[IL-23]))+background binding.\nTable 25 below summarizes the minimized sequences and the parent clone from which they were derived, and Table 26 summarizes the binding characterization from direct binding assays (+/−tRNA) and competition binding assays for the minimized constructs tested."}, "[4]": {"target": "T1, IL-23 (human, p19/p40 heterodimer)", "assay": "filter; no binding in dot blot, but active in TransAM cell assay (p381)", "details": "tags: R&D Systems, carrier free; label: 5'-32P"}, "[5]": {"target": "T1, IL-23 (human, p19/p40 heterodimer)", "assay": "competition; 1X PBS, 0.1 mg/mL BSA; direct binding Kd 40 nM with tRNA", "details": "tags: R&D Systems, carrier free; label: 5'-32P; G4 (predicted)", "protocol": "as §1\n(§2) Several of the minimized constructs from the dRmY Selection 2 were also assayed in a competition format in which cold aptamer was titrated and competed away trace ³²P ATP labeled aptamer In the competition assay, the [IL-23] was held constant, the [trace labeled aptamer] was held constant, and the [unlabeled aptamer] was varied. The KD was calculated by fitting the following equation to the data: Fraction aptamer bound=amplitude*([aptamer]/(KD+[aptamer]))+background binding."}, "[6]": {"target": "T1, IL-23 (human, p19/p40 heterodimer)", "assay": "competition; 1X PBS, 0.1 mg/mL BSA; direct Kd 93 nM with tRNA, 90 nM without", "details": "tags: R&D Systems, carrier free; label: 5'-32P; G4", "protocol": "as §1, §2"}, "[7]": {"target": "T1, IL-23 (human, p19/p40 heterodimer)", "assay": "filter; 1X PBS, tRNA, ssDNA, BSA, 30 min RT", "details": "tags: R&D Systems, carrier free; label: 5'-32P", "excerpt": "Following the dRmY selection process for aptamers binding to IL-23 (described in Example 1C above) and determination of the oligonucleotide sequences, the sequences were systematically minimized to obtain shorter oligonucleotide sequences that retain the binding characteristics. On the basis of the IL-23 binding analysis described in Example 1A above and the cell based assay data described in Example 3 below, ARC489 (SEQ ID NO 91) (74mer) was chosen for further characterization. 3 minimized constructs based on clone ARC489 (SEQ ID NO 91) were designed and generated. […] Table 23 includes the binding data for the dRmY minimized aptamers."}, "[8]": {"target": "T2, IL-12 (mouse, p35/p40 heterodimer) (Mus musculus, UniProt P43431;P43432 SEQ:23-215,SEQ:23-335)", "T2 sequence 1": "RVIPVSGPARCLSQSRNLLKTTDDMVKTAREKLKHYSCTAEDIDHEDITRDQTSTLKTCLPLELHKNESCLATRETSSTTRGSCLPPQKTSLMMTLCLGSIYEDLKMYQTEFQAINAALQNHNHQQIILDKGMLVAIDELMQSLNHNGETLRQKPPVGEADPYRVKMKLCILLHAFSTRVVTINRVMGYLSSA", "T2 sequence 2": "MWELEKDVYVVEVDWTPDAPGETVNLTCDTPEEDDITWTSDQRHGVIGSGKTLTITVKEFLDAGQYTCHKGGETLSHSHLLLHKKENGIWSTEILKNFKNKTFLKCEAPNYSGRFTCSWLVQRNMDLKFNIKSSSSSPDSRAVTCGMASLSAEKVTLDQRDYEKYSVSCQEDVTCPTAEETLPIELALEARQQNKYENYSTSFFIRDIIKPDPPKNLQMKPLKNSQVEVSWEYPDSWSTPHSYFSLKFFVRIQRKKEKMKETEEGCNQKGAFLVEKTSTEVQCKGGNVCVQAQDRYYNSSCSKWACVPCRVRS", "assay": "filter; 1X PBS, 0.1 mg/mL BSA, 30 min RT", "details": "label: 32P", "protocol": "(§3) rRfY-mIL-23S/mIL-12 neg Protein Binding Analysis. The dot blot binding assays previously described were performed throughout the selection to monitor the protein binding affinity of the pool. Trace ³²P-labeled RNA was combined with mIL-23 or mIL-12 and incubated at room temperature for 30 min in 1×PBS plus 0.1 mg/mL BSA for a final volume of 30 μL. The reaction was added to a dot blot apparatus (Schleicher and Schuell Minifold-1 Dot Blot, Acrylic). Binding curves were generated as described in previous sections. When a significant level of binding of RNA in the presence of mIL-23 was observed, the pool was cloned using the TOPO TA cloning kit (Invitrogen, Carlsbad, Calif.) according to the manufacturer's instructions. The Round 9 pool template was cloned, and 10 individual clones from the selection were assayed in an 8-point dot blot titration against mIL-23. […] Four of the 10 total clones screened bound especially to mIL-23 and mIL-12 at varying affinities."}, "[9]": {"target": "T3, IL-23 (mouse, p19/p40 heterodimer) (Mus musculus, UniProt Q9EQ14;P43432 SEQ:22-196,SEQ:23-335)", "T3 sequence 1": "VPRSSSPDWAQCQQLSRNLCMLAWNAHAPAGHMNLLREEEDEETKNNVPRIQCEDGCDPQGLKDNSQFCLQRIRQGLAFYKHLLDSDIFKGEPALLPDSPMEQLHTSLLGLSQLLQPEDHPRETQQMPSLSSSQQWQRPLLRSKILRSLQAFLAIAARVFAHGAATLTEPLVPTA", "T3 sequence 2": "T2 sequence 2", "assay": "filter; 1X PBS, 0.1 mg/mL BSA, 30 min RT", "details": "tags: isolated in-house; label: 32P", "protocol": "as §3"}, "[10]": {"target": "T1, IL-23 (human, p19/p40 heterodimer)", "assay": "filter; direct binding without tRNA; competition Kd 5 nM", "details": "tags: R&D Systems, carrier free; label: 5'-32P", "protocol": "These molecules were gel purified and assayed for IL-23 binding using the dot blot assay as described above and compared to each other and to the parent molecule, ARC979. An 8 point IL-23 titration (0 nM to 300 nM, 3 fold serial dilutions) was used in the binding assay."}, "[11]": {"target": "T3, IL-23 (mouse, p19/p40 heterodimer)", "assay": "filter; 1X PBS, 0.1 mg/mL BSA, 30 min RT; inactive in TransAM cell assay", "details": "tags: isolated in-house; label: 32P", "excerpt": "Based on visual inspection of the parent clone sequences of the mouse IL-23 rRfY aptamers described in Example 1E, and predicted RNA structures using an RNA folding program (RNAstructure), minimized constructs were designed for each of the seven binding mIL-23 clones. PCR templates for the minimized construct oligos were ordered from Integrated DNA Technologies (Coraville, Iowa). Constructs were PCR amplified, transcribed, gel purified, and tested for binding to mIL-23 using the dot blot binding assay previously described. Trace ³²P-labeled RNA was combined with mIL-23 and incubated at room temperature for 30 min in 1×PBS plus 0.1 mg/mL BSA for a final volume of 30 μL. The reaction was added to a dot blot apparatus (Schleicher and Schuell Minifold-1 Dot Blot, Acrylic). Binding curves were generated as described in previous sections. Table 33 summarizes the protein binding characterization for each rRfY minimized construct that had significant binding to mIL-23."}, "[12]": {"target": "T1, IL-23 (human, p19/p40 heterodimer)", "assay": "SPR; Biacore, IL-23 immobilized on CM3; HBS-P, 25 C", "details": "tags: R&D Systems, carrier free", "protocol": "All biosensor binding measurements were performed at 25° C. using a BIACORE 2000 equipped with a research-grade CM3 biosensor chip (BIACORE Inc. Piscataway, N.J.). Purified recombinant human IL-23 (R&D Systems, Minnapolis, Minn.) was immobilized to the biosensor surface using amino-coupling chemistry. To achieve this, the surfaces of two flow cells were first activated for 7 minutes with a 1:1 mixture of 0.1 M NHS (Nhydroxysuccinimide) and 0.4 M EDC (3-(N,Ndimethylamine) propyl-N-ethylcarbodiimide) at a flow rate of 5 μl/min. After surface activation, one flow cell was injected with 50 μg/ml of IL-23 at rate of 10 μl/minute for 15 minutes to allow for establishment of covalent bonds to the activated surface. Next, 1 M ethanolamine hydrochloride pH 8.5 was injected for 7 min at rate of 5 μl/min to inactivate residual esters. As a negative control, a blank flow cell was prepared by injecting 1 M ethanolamine hydrochloride pH 8.5 continuously for 7 minutes to inactivate residual esters, without protein injection.\nFor IL-23 binding, aptamers were serially diluted into HBS-P buffer (10 mM HEPES pH7.4, 150 mM NaCl, 0.005% Surfactant 20). […] Rate constant and dissociation constant were calculated using BIAevaluation software."}, "[13]": {"target": "T1, IL-23 (human, p19/p40 heterodimer)", "assay": "filter; DPBS Ca Mg, 0.1 mg/mL BSA", "details": "tags: R&D Systems, carrier free", "protocol": "The dot blot binding assay previously described was used to characterize the relative potency of the majority of the aptamers synthesized. For KD determination, chemically synthesized aptamers were purified using denaturing polyacrylamide gel electrophoresis, 5′end labeled with γ-³²P ATP and were tested for direct binding to full human IL-23. An 8 point protein titration was used in the dot blot binding assay (either {100 nM, 30 nM, 10 nM, 3 nM, 1 nM, 300 pM, 100 pM, 0 pM} or {10 nM, 3 nM, 1 nM, 300 pM, 100 pM, 30 pM, 10 pM, 0 pM}) in Dulbecco's PBS (with Mg⁺⁺ and Ca⁺⁺) with 0.1 mg/mL BSA. KD values were calculated by fitting the equation y=(max/(1+K/protein))+yint using KaleidaGraph (KaleidaGraph v. 3.51, Synergy Software). Sequences of the ARC979 derivatives synthesized, purified and assayed for binding to IL-23 as well as the results of the protein binding characterization are tabulated below in Tables 29 and 30."}, "[14]": {"target": "T1, IL-23 (human, p19/p40 heterodimer)", "assay": "filter; non functional, lacks G doubles", "details": "tags: R&D Systems, carrier free"}}}
{"binder": "B1", "values": [{"measurement": "binding result", "setting": "[1]", "result": "no binding"}, {"measurement": "binding result", "setting": "[2]", "result": "no binding"}]}
{"binder": "GGCAAGGUAAUUGGGUAGUGAGGGCUGGG (mixed, 2'-deoxy A and G, 2'-OMe C and U (dRmY))", "note": "[ARC895]", "values": [{"measurement": "binding result", "setting": "[3]", "result": "no binding"}]}
{"binder": "GGCGGUUACGGGGGAUGCGGGUGGGACAGG (mixed, 2'-deoxy A and G, 2'-OMe C and U (dRmY))", "note": "[ARC982]", "values": [{"measurement": "binding result", "setting": "[4]", "result": "no binding"}]}
{"binder": "CGAUAUAGGCGGUACGGGGGGAGUGGGCUGGGGUCG (mixed, 2'-deoxy A and G, 2'-OMe C and U (dRmY))", "note": "[ARC795]", "values": [{"measurement": "Kd", "setting": "[5]", "result": 4, "unit": "nM"}]}
{"binder": "ACAGGCAAGUAAUUGGGGAGUGCGGGCGGGGUGU (mixed, 2'-deoxy A and G, 2'-OMe C and U (dRmY))", "note": "[ARC979]", "values": [{"measurement": "Kd", "setting": "[6]", "result": 9, "unit": "nM"}]}
{"binder": "ACAGCGCCGGUGGGCGGGCAUUGGGUGGAUGCGCUGU (mixed, 2'-deoxy A and G, 2'-OMe C and U (dRmY))", "note": "[ARC527]", "values": [{"measurement": "Kd", "setting": "[7]", "result": 12.6, "unit": "nM"}]}
{"binder": "B2", "values": [{"measurement": "Kd", "setting": "[8]", "result": 194, "unit": "nM"}, {"measurement": "Kd", "setting": "[9]", "result": 23, "unit": "nM"}]}
{"binder": "B3", "values": [{"measurement": "Kd", "setting": "[10]", "result": 38, "unit": "nM"}]}
{"binder": "GGAGCGCACUCAGCCACCGGCUUAAUAUCCAAUAGGAACGUUCGCUCU (ssRNA, 2'-F all C and U (rRfY))", "note": "[ARC1918 (ARC1632 minimer)]", "values": [{"measurement": "Kd", "setting": "[11]", "result": 1, "unit": "nM"}]}
{"binder": "ACAGGCAAGUAAUUGGGGAGUGCGGGCGGGGUGU (mixed, ARC1623 with 5'-amine-linked 40 kDa PEG; 2'-deoxy, 2'-OMe, PS, 3'-idT)", "note": "[ARC1988]", "values": [{"measurement": "Kd", "setting": "[12]", "result": "~2", "unit": "nM"}]}
{"binder": "B4", "values": [{"measurement": "Kd", "setting": "[13]", "result": 0.4, "unit": "nM"}]}
{"binder": "CUACAAGGCGGUACGGGGAGUGUGG (mixed, deoxy A,G; 2'-OMe C,U)", "note": "[ARC793]", "values": [{"measurement": "binding result", "setting": "[14]", "result": "no binding"}]}
